Results published in patent publication US20190071518A1 (PIERRE FABRE MEDICAMENT, published 2019).

Assays:
[1] = biological target: T1, ADAM17 on the surface of human tumour cells (A431 substrate-Nluc cells; NCI-H1299) (human, UniProt P78536 215-824); experiment: flow cytometry on the tumour cell line NCI-H1299, antibody titration
T1 construct: Endogenous ADAM17 of human tumour cell lines; also called ADAM17 at the plasma membrane; tumour cell line NCI-H1299

rhADAM10 = biological target: T2, rhADAM10 (human, UniProt O14672); experiment: ELISA on coated rhADAM10 (2.5 µg/ml), OD 450 nm
T2 construct: also called recombinant human ADAM10 (AD936, R&D Systems)
T2 sequence (recombinant ADAM10 polypeptide, looked up): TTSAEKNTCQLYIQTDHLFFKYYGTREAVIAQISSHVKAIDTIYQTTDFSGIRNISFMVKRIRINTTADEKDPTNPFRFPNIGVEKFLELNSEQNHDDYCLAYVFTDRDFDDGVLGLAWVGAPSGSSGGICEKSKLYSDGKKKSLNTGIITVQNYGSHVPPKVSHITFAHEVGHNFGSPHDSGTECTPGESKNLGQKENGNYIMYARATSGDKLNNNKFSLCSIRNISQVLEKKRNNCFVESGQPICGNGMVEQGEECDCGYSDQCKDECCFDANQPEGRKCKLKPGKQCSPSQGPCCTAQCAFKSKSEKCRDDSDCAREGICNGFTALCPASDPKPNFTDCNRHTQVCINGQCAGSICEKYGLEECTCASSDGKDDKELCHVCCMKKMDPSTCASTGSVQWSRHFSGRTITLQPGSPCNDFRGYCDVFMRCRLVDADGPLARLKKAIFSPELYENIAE
Method: The binding of 1022C3 to human ADAM17 and ADAM10 was determined by ELISA in comparison to the anti human ADAM10 antibody AB936 (R&D Systems). A ninety six well ELISA plate was coated with 100 μl/well of recombinant human (rh)ADAM17 (930-ADB, R&D Systems) at a concentration of 1 μg/ml or rhADAM10 (AD936, R&D Systems) at a concentration of 2.5 μg/ml in PBS. The coating solution was incubated overnight at 4° C. The plates were then blocked with PBS containing 0.5% gelatin (#22151, Serva Electrophoresis GmbH, Heidelberg, Germany) for 2 h at 37° C. The saturation buffer discarded by flicking plates, 100 μl of 1022C3 at a concentration of 1 μg/ml in PBS or 5 μg/ml of anti human ADAM10 polyclonal (AB936, R&D Systems) was added to the ELISA plates and incubated for 1 h at 37° C. After three washes, 100 μl horseradish peroxidase-conjugated anti human (A7164, Sigma) or anti goat (115-035-164, Jackson ImmunoResearch Europe Ltd) antibody solution diluted 1/5000 in PBS were incubated for 1 h at 37° C. After three washes, 100 μl/well TMB substrate (#UP664782, Uptima, Interchim, France) was added. After a 10 min incubation time at room temperature, the reaction was stopped using 1 M sulphuric acid and the optical density at 450 nm was measured (FIG. 7).

[2] = biological target: ADAM17 fragments and chimeric constructs giving the positive response; experiment: SPR (Biacore X100), about 700 RU m1022C3 captured, analyte 250 nM, FC2-FC1
[3] = biological target: murine ADAM17 M1-671 (p-c-d-mpd) human Fc fusion (murine; human) (UniProt Q9Z0F8); experiment: as above
[4] = biological target: murine/human chimeric ADAM17 M1-602H603-671 (p-c-d-mpd (Nter)-MPD (Cter)) human Fc fusion (murine; human) (UniProt Q9Z0F8); experiment: as above
[5] = biological target: T3, human ADAM17 H603-671 (MPD (Cter)) human Fc fusion (human, UniProt P78536 603-671); experiment: as above
T3 construct: not shown: human Fc domain at the C-terminus
Method: (§1) The experiment was performed on a Biacore X100 device. The 1022C3 is used as the ligand and the ADAM17 fragments and chimeric constructs are used as the analyte. The experiment is run at 10 μl/min at 25° C. on a rabbit anti-mouse polyclonal antibody (Mouse antibody capture kit, BR-1008-38, GE Healthcare) covalently linked to the matrix of both flowcells of a CM5 sensorchip (BR-1000-12) using the amine coupling kit (BR-1000-50, GE Healthcare), using the HBS-EP+ buffer (BR-1008-26, GE Healthcare) as the running buffer. This buffer is also used for the dilutions of the ligand and the analytes.
(§2) A solution of the 1022C3 at the concentration of 15 μg/ml is injected on the second flowcell (working surface) during 1 minute. At each cycle, one of the ADAM17 chimeric constructions (with a human Fc domain at the c-terminal positions) is injected at the concentration of 250 nM during 3 minutes on both flow cells: the reference without any 1022C3 (FC1) and the working cell with around 700 RU of m1022C3 (FC2). The registered signal corresponds to the difference between FC2 and FC1 responses.

[6] = biological target: T4, human ADAM17 H1-474 (P-C) human Fc fusion (human, UniProt P78536 18-474); experiment: as above
T4 construct: Range as printed; not shown: human Fc domain at the C-terminus
Method: as §1, §2

[7] = biological target: T5, human ADAM17 H223-563 (C-D) human Fc fusion (human, UniProt P78536 223-563); experiment: as above
T5 construct: not shown: human Fc domain at the C-terminus
Method: as §1, §2

[8] = biological target: T6, human ADAM17 H475-563 (D) human Fc fusion (human, UniProt P78536 475-563); experiment: as above
T6 construct: not shown: human Fc domain at the C-terminus
Method: as §1, §2

[9] = biological target: T7, human ADAM17 H223-602 (C-D MPD (Nter)) human Fc fusion (human, UniProt P78536 223-602); experiment: as above
T7 construct: not shown: human Fc domain at the C-terminus
Method: as §1, §2

[10] = biological target: T8, human ADAM17 H475-602 (D-MPD (Nter)) human Fc fusion (human, UniProt P78536 475-602); experiment: as above
T8 construct: not shown: human Fc domain at the C-terminus
Method: as §1, §2

[11] = biological target: soluble ADAM17 (extracellular domain of ADAM-17) (human, UniProt P78536 215-671); experiment: SPR (Biacore), antibody captured on rabbit anti-mouse IgG, soluble ADAM17 400-12.5 nM, 1:1 Langmuir fit
Method: The antibody (ligand) was bound to the second flowcell of a Biacore CM5 sensor chip (GE Healthcare) activated on both flowcells with a Rabbit anti-Mouse (RAM) IgG (H+L) covalently linked to the carboxymethyldextran matrix. Soluble ADAM17 (analyte) at concentrations ranging from 400 to 12.5 nM obtained by a two fold dilution scheme (assuming a molecular weight of 52 kDa) was injected onto the surface at a flow rate of 30 μl/min in a 120 s pulse (association) plus an extra 180 s delay for the dissociation phase measurement. The RAM surface was regenerated using NaOH 30 mM, NaCl 150 mM and 10 mM Glycine, HCl pH 1.5 buffer solutions. Curves obtained at each concentration were double referenced by first subtracting the signal from the reference FC1 surface (RAM without any mouse anti-TACE mAb) followed by subtraction of the signal obtained from a running buffer injection (Biacore HBS-EP buffer).
Data were processed using BIAevaluation 3.1 software using the 1:1 Langmuir model. The suitability of the fit was measured by the values of the Refractive Index (RI) which have to tend to zero and the κ² value.

Sequence of soluble ADAM17 (extracellular domain of ADAM-17) (P78536 215-671): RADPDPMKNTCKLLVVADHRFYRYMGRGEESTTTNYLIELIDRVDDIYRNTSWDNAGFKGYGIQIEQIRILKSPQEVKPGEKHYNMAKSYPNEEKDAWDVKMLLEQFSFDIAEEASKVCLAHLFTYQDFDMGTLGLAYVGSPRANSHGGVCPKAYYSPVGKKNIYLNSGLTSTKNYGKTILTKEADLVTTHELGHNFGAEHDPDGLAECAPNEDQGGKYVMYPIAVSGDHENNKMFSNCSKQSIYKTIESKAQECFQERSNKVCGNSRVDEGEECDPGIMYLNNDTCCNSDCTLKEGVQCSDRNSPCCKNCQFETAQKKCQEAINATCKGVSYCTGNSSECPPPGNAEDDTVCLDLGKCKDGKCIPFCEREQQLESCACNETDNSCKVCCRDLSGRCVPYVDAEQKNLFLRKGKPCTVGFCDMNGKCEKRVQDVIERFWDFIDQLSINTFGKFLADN
T1 sequence (P78536 215-824 limits assumed): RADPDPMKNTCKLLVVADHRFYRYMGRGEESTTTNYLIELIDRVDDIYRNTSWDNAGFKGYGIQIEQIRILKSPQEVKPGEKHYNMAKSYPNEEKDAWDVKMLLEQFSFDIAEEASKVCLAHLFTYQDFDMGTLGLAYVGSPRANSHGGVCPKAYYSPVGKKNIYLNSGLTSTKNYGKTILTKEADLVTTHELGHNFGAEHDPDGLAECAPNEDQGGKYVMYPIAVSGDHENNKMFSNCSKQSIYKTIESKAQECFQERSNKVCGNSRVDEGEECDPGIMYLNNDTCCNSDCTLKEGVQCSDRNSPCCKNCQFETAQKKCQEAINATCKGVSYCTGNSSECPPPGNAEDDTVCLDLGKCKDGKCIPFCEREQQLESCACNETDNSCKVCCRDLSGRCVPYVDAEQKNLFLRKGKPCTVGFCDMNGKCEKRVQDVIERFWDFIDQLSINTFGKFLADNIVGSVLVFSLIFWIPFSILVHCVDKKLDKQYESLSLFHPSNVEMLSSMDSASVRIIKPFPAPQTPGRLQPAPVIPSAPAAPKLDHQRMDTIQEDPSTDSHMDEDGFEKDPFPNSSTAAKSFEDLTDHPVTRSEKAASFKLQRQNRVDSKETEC
T6 sequence (P78536 475-563): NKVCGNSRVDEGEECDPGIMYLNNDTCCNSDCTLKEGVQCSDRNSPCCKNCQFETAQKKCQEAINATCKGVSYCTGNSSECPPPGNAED
Sequence of murine ADAM17 M1-671 (p-c-d-mpd) human Fc fusion (murine; human) (Q9Z0F8 18-671 limits assumed, form in doubt): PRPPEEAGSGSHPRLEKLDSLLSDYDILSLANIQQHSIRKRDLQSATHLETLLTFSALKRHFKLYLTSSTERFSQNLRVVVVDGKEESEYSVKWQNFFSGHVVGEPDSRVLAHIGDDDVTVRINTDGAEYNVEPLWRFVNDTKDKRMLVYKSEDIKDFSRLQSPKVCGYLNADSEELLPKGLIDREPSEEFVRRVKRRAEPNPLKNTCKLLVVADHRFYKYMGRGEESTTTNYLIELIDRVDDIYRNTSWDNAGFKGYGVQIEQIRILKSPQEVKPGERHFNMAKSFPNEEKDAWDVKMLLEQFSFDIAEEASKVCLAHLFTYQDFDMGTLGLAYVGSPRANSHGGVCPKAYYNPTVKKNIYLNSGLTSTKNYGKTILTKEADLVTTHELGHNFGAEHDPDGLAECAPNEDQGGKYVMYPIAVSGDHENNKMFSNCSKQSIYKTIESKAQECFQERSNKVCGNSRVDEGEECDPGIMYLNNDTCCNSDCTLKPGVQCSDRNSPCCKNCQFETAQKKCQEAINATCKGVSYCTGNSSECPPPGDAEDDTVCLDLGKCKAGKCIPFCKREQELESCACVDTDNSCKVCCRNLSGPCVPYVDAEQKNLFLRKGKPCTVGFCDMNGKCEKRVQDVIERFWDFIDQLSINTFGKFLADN
Sequence of murine/human chimeric ADAM17 M1-602H603-671 (p-c-d-mpd (Nter)-MPD (Cter)) human Fc fusion (murine; human) (Q9Z0F8 other isoform, or with tags, fused parts or gaps mutant limits assumed, form in doubt): as the sequence (Q9Z0F8 18-671 limits assumed, form in doubt) above, with N589D, P593R counted along it
T4 sequence (P78536 18-474): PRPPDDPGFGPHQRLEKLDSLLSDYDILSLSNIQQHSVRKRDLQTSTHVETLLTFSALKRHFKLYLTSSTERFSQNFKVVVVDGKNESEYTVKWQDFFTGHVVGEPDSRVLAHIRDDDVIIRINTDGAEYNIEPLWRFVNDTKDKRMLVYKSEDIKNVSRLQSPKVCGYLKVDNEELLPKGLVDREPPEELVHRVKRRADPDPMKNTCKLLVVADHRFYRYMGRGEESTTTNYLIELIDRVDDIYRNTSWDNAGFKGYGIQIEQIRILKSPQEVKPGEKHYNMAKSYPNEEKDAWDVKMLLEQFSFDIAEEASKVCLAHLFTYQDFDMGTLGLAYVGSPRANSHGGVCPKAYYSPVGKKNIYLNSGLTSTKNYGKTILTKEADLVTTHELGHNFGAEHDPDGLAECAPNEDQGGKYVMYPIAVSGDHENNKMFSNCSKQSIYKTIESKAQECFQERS
T8 sequence (P78536 475-602): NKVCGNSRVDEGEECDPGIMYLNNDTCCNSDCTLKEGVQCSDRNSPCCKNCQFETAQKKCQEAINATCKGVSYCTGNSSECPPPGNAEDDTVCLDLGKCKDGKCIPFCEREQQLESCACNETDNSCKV
T7 sequence (P78536 223-602): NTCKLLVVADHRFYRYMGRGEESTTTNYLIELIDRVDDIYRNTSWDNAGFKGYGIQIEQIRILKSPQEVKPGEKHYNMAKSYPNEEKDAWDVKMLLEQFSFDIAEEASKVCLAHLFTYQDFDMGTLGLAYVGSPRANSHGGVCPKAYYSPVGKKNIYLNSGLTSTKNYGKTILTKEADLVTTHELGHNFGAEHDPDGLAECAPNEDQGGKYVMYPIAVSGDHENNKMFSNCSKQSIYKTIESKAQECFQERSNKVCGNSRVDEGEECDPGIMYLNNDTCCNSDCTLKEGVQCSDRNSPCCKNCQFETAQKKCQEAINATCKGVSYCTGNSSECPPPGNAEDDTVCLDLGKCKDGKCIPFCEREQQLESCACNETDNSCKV
T3 sequence (P78536 603-671): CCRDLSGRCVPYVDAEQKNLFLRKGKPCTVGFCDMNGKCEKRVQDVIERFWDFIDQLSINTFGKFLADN
T5 sequence (P78536 223-563): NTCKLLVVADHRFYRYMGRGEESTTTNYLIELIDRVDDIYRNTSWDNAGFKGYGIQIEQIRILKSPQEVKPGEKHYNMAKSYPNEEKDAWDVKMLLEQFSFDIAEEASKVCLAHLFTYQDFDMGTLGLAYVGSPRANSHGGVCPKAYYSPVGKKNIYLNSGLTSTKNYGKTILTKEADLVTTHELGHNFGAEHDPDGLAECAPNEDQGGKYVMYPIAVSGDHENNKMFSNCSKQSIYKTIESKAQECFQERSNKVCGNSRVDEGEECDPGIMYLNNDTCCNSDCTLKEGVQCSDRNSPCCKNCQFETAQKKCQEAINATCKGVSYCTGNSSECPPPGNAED

B1: enzymatically deglycosylated 1022C3 (antibody, V domains shown)
VH: QVTLKESGPGILQPSQTLSLTCSFSGFSLDTSGMGVSWIRQPSGKGLEWLAHIYWDDDKRYNPSLKSRLTISKDTSSNQVFLKITSLDTADTATYYCARRSHFGNYYYAMDYWGQGTSVTVTS
VL: DVQMTQTTSSLSASLGDRVTISCRASQDISSYLNWYQQKPDGTFKLLIFYTSRLQSGVPSKYSGSGSGTDYSLTISNLEQEDIAAYFCQQGKTLPLTFGAGTKLELK
notes: also called 1022C3 enzymatically deglycosylated
EC50 (read off the curve) [1]: ~500 pM

B2: murine monoclonal antibody 1022C3 (antibody, V domains shown)
VH: QVTLKESGPGILQPSQTLSLTCSFSGFSLNTSGMGVSWIRQPSGKGLEWLAHIYWDDDKRYNPSLKSRLTISKDTSSNQVFLKITSLDTADTATYYCARRSHFGNYYYAMDYWGQGTSVTVTS
VL: DVQMTQTTSSLSASLGDRVTISCRASQDISSYLNWYQQKPDGTFKLLIFYTSRLQSGVPSKYSGSGSGTDYSLTISNLEQEDIAAYFCQQGKTLPLTFGAGTKLELK
modifications: N-glycosylated asparagine in CDR-H1
notes: Murine IgG from hybridoma I-4686, captured by anti-mouse antibody in the SPR assays; also called m1022C3; mAb 1022C3
binding result (rhADAM10): no binding (tested: 1 µg/ml)
response (RU) [2]: 90 to 140 RU
response (RU) [3]: < 10 RU
response (RU) [4]: < 10 RU
response (RU) [5]: < 10 RU
response (RU) [6]: < 10 RU
response (RU) [7]: < 10 RU
response (RU) [8]: < 10 RU
response (RU) [9]: < 10 RU
response (RU) [10]: < 10 RU
EC50 (read off the curve) [1]: ~500 pM
Kd [11]: 1.27 nM
koff [11]: 0.00036 s⁻¹
kon [11]: 284000 M⁻¹ s⁻¹
